Our source for the Kd values is doi:10.1101/2024.12.23.630085, “Accurate sequence-to-affinity models for SH2 domains from multi-round peptide binding assays coupled with free-energy regression” (bioRxiv, 2025).

Sequences and labels used below:
B1: Syn-G2-2 (synthetic) (peptide)
peptide: Ac-QHNIHS[pY]INIPPG-NH2
notes: source: synthetic peptide (SynPeptide, China)
B2: Syn-G2-5 (synthetic) (peptide)
peptide: Ac-QLGHQR[pY]HNITPG-NH2
notes: as for B1
B3: Syn-G2-6 (synthetic) (peptide)
peptide: Ac-QHRLNN[pY]ENNRLG-NH2
notes: as for B1
B4: Syn-G2-7 (synthetic) (peptide)
peptide: Ac-QIEVGT[pY]QNPHNG-NH2
notes: as for B1
B5: SLAP-130 pY595 (peptide)
peptide: Ac-QDDQEV[pY]DDVAEG-NH2
notes: flank added to the 11-residue stretch (surmised: last residue of the library's constant GQSGQ); SLAP-130, human, around pY595; flank added to the 11-residue stretch (surmised: first residue of the library's constant GGQSG); also called SLAP-130 Y595; source: synthetic peptide (SynPeptide, China)
B6: CD84 pY296 (peptide)
peptide: Ac-QAESRI[pY]DEILQG-NH2
notes: flank added to the 11-residue stretch (surmised: last residue of the library's constant GQSGQ); CD84, human, around pY296; flank added to the 11-residue stretch (surmised: first residue of the library's constant GGQSG); source: synthetic peptide (SynPeptide, China)
B7: SLAP-130 pY771 (peptide)
peptide: Ac-QNDGEI[pY]DDIADG-NH2
notes: flank added to the 11-residue stretch (surmised: last residue of the library's constant GQSGQ); SLAP-130, human, around pY771; flank added to the 11-residue stretch (surmised: first residue of the library's constant GGQSG); source: synthetic peptide (SynPeptide, China)
B8: PLCG2 pY 753 (peptide)
peptide: Ac-QDINSL[pY]DVSRMG-NH2
notes: flank added to the 11-residue stretch (surmised: last residue of the library's constant GQSGQ); PLCG2, human, around pY753; flank added to the 11-residue stretch (surmised: first residue of the library's constant GGQSG); also called PLCγ2 pY753; source: synthetic peptide (SynPeptide, China)
B9: PTPN6 pY564 (peptide)
peptide: Ac-QHKEDV[pY]ENLHTG-NH2
notes: flank added to the 11-residue stretch (surmised: last residue of the library's constant GQSGQ); PTPN6 (SHP1), human, around pY564; flank added to the 11-residue stretch (surmised: first residue of the library's constant GGQSG); also called SHP1 pY564; source: synthetic peptide (SynPeptide, China)
B10: SIGLEC5 pY544 (peptide)
peptide: Ac-QPSTTE[pY]SEIKTG-NH2
notes: flank added to the 11-residue stretch (surmised: last residue of the library's constant GQSGQ); SIGLEC5, human, around pY544; flank added to the 11-residue stretch (surmised: first residue of the library's constant GGQSG); source: synthetic peptide (SynPeptide, China)
B11: TRAF3IP3 pY322 (peptide)
peptide: Ac-QEWRSQ[pY]EALKEG-NH2
notes: flank added to the 11-residue stretch (surmised: last residue of the library's constant GQSGQ); TRAF3IP3, human, around pY322; flank added to the 11-residue stretch (surmised: first residue of the library's constant GGQSG); source: synthetic peptide (SynPeptide, China)

Non-standard residues stand in square brackets, D forms with d. pY = N[C@@H](Cc1ccc(OP(=O)(O)O)cc1)C(=O)O

T3 sequence (P07948 121-228): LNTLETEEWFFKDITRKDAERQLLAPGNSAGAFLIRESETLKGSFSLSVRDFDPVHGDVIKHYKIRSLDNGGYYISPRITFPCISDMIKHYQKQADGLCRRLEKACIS

One assay deals with T1, Grb2 SH2 domain (UniProt P62993 60-152, biotin (biotinylated SH2 domain of the selection)).
T1 construct: SH2 domain of the adapter protein Grb2; source: purified
T1 sequence (P62993 60-152): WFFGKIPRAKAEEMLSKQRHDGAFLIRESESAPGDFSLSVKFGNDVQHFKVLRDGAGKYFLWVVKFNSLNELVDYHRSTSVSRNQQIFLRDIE
The assay is described as follows: fluorescence polarisation; competition mode; unlabelled phosphopeptide against 30 nM FITC-Ahx-FDDPS(pY)VNVQN and 123 nM Grb2 SH2 (Table S3). The following applies: both partners purified. For orientation: Fluorescence polarisation rises when a labelled molecule tumbles more slowly, as on binding a larger partner.
In the case of B1, the Kd is 3.99 nM. For B2, binding was characterised by a dissociation constant (Kd) of 487 nM.

For the molecule B3, the Kd is 2250 nM. This Kd lies about 4.6-fold higher than the previous one. Still for that read-out and setting: as for B4, the figure is 3240 nM.

The next assay deals with T2, c-Src SH2 domain (UniProt P12931-1 151-248, biotin (biotinylated SH2 domain of the selection)).
T2 construct: SH2 domain of c-Src kinase; source: purified
The assay can be described thus: fluorescence polarisation; competition mode; unlabelled phosphopeptide against 30 nM FITC-Ahx-GDG-pY-EEISPLLL-NH2 and 122.745 nM c-Src SH2 (123.745 to 125.745 in three rows; Table S3). The following applies: both partners purified.
For the molecule B5, the affinity, expressed as Kd, was 191 nM. In the case of B6, the affinity, expressed as Kd, was 28.1 nM. This Kd is about 6.8-fold lower than that of the molecule before.

For B7, the affinity, expressed as Kd, was 94 nM. The same measure, in the same setting: as for B8, the figure is 12300 nM; as for B9, 909 nM; as for B10, 282 nM.

In turn, B11 gave an equilibrium dissociation constant (Kd) of 6480 nM.

A further assay has as its target T3, Lyn SH2 domain (121-228) (human, UniProt P07948 121-228, biotin (on the AviTag)).
T3 construct: source: E. coli C43(DE3) with BirA helper plasmid, purified (HisTrap, anion exchange, Ulp1 cleavage, SEC); not shown: His6-SUMO, N-terminal, cleaved; AviTag, C-terminal, kept
The assay is described as follows: fluorescence polarisation; competition mode; unlabelled phosphopeptide against 30 nM FITC-Ahx-GDG-pY-EEISPLLL-NH2 and 106.5 nM Lyn SH2 (Table S3). The following applies: both partners purified.
Turning to B5, the Kd was 240 nM. Same read-out and setting: under B6 stands 91 nM; under B7, 96.8 nM; under B8, 11700 nM. Same read-out and setting: as for B9, the figure is 943 nM; as for B10, 362 nM.

On to B11, for which the Kd turned out to be 3940 nM. Against the preceding molecule, the Kd is about 11-fold higher.

For orientation: Kd means a measure of binding affinity in units of concentration. A low value points to higher affinity.
